Patent US20230212549A1 (3B PHARMACEUTICALS, published 2023)
Values joined by “and” are separate entries in the source; they are usually repeats but may differ in a detail not shown here. Equal values may be shown once. Numbered stars: 1 amine (or outer) side, 2 acyl side, 3 side chain; on linkers, the order of the positions; unused ones are H or OH. Bridge positions count the residues as written; N and C are the ends. Square brackets hold non-standard residues; d marks the D form. Primed or numbered codes have the meaning given here. * marks the point of attachment. 3MeBn = 3-Methylbenzylidene (m-xylylene thioether bridge from α,α′-dibromo-m-xylene); Ttds(4) = spacer between chelator and peptide, O=C(CCC(=O)[*:2])NCCCOCCOCCOCCCN[*:1]; N4Ac = 6-Carboxy-1,4,8,11-tetraazaundecane, an N4-chelator, NCCNCC(CNCCN)C(=O)*; NODAGA′ = 1,4,7-triazacyclononane-1-glutaric acid-4,7-diacetic acid chelator; Pro(4S-NH2) = N[C@@H]1CN[C@H](C(=O)O)C1; mXylylene = c1cc(C[*:1])cc(C[*:2])c1; PPAc = 4-Carboxymethyl piperazine; NMeF = CN[C@@H](Cc1ccccc1)C(=O)O; Tic = O=C(O)[C@@H]1Cc2ccccc2CN1; Pen = CC(C)(S)[C@H](N)C(=O)O; Nle = CCCC[C@H](N)C(=O)O; PEG6′ = not defined here; Hexanoyl = CCCCCC(=O)*

Experiments:
[1] = target: Recombinant human FAP (R&D systems, #3715-SE) (human, UniProt Q12884 26-760); assay: cell-based or functional assay
[2] = target: T1, fibroblast activation protein (FAP) on FAP-expressing human WI-38 fibroblasts (human, UniProt Q12884 1-760); assay: competitive FACS, WI-38 cells, vs Cy5 tracer m3; D = pIC50 <=6.0
T1 construct: also called human FAP

[3] = target: T2, human fibroblast activation protein (FAP) on WI-38 fibroblasts (human, UniProt Q12884 1-760); assay: competitive FACS, WI-38 cells, Cy5-labeled peptide as competitor; B = pIC50 7.1 to 8.0
T2 construct: FAP-expressing human WI-38 fibroblasts (ECACC)

[4] = target: Recombinant human FAP (R&D systems, #3715-SE) (human, UniProt Q12884 26-760); assay: cell-based or functional assay; remark: listed apart in the source
[5] = target: T3, human fibroblast activating protein (FAP) on WI-38 fibroblasts (human, UniProt Q12884 1-760); assay: competitive FACS on WI-38 cells vs 3 nM Cy5-labeled peptide; pIC50 category B = 7.1-8.0
T3 construct: FAP-expressing human WI-38 fibroblasts (ECACC)

Row | pIC50 Category (Activity) [1] | pIC50 Category (FACS) [2] | pIC50 [5] | Binder | other results
1 | 6.1 pIC50 and 7 pIC50 | ≤ 6 pIC50 |  | Hexanoyl-CP[Pro(4S-NH2)]TEFC-NH2 (linker 1-7 via mXylylene; SMILES CCCCCC(=O)N[C@H]1CSCc2cccc(c2)CSC[C@@H](C(N)=O)NC(=O)[C@H](Cc2ccccc2)NC(=O)[C@H](CCC(=O)O)NC(=O)[C@H]([C@@H](C)O)NC(=O)[C@@H]2C[C@H](N)CN2C(=O)[C@@H]2CCCN2C1=O, also called 3BP-3367) [Hex-[Cys(3MeBn)-Pro-Tap-Thr-Glu-Phe-Cys]-NH2] | 
2 | 6.1 pIC50 and 7 pIC50 | ≤ 6 pIC50 |  | Hexanoyl-CPPTEF[Pen]-NH2 (linker 1-7 via mXylylene; SMILES CCCCCC(=O)N[C@H]1CSCc2cccc(c2)CSC(C)(C)[C@@H](C(N)=O)NC(=O)[C@H](Cc2ccccc2)NC(=O)[C@H](CCC(=O)O)NC(=O)[C@H]([C@@H](C)O)NC(=O)[C@@H]2CCCN2C(=O)[C@@H]2CCCN2C1=O, also called 3BP-3351) [Hex-[Cys(3MeBn)-Pro-Pro-Thr-Glu-Phe-Pen]-NH2] | 
3 | 6.1 pIC50 and 7 pIC50 | ≤ 6 pIC50 |  | Hexanoyl-CPPTE[Tic]C-NH2 (linker 1-7 via mXylylene; SMILES CCCCCC(=O)N[C@H]1CSCc2cccc(c2)CSC[C@@H](C(N)=O)NC(=O)[C@@H]2Cc3ccccc3CN2C(=O)[C@H](CCC(=O)O)NC(=O)[C@H]([C@@H](C)O)NC(=O)[C@@H]2CCCN2C(=O)[C@@H]2CCCN2C1=O, also called 3BP-3359) [Hex-[Cys(3MeBn)-Pro-Pro-Thr-Glu-Tic-Cys]-NH2] | 

The remaining lines, values behind:

Row | Binder | pIC50 Category (Activity) [1] | pIC50 Category (FACS) [2] | pIC50 [5] | other results
4 | Hexanoyl-CPPTQFCD-NH2 (linker 1-7 via tMeBn(H-AET), also called 3BP-3981) [Hex-[Cys-(tMeBn(H-AET))-Pro-Pro-Thr-Gln-Phe-Cys]-Asp-NH2] |  |  |  | pIC50 [3]: 7.1 to 8 pic50; pIC50 Category (Activity) [4]: > 8 pIC50
5 | Hexanoyl-CPPTEFC-OH (linker 1-7 via tMeBn(GaNOPO-AET); also: gallium-NOPO chelator-AET arm on the linker, also called 3BP-4816) [Hex-[C(tMeBn(GaNOPO-AET))-PPTEFC]-OH] |  |  | 7.1 to 8 pic50 | 
6 | CPPTEFC (N-term Hex-; Cys1 and Cys7 thioether-bridged by tMeBn(NODAGA-AET); C-term -OH, also called 3BP-4695) [Hex-[C(tMeBn(NODAGA-AET))-PPTEFC]-OH] |  |  | 7.1 to 8 pic50 | 
7 | Hexanoyl-CPPTEFC-OH (linker 1-7 via tMeBn(NOPO-AET), also called 3BP-4818) [Hex-[C(tMeBn(NOPO-AET))-PPTEFC]-OH] |  |  | 7.1 to 8 pic50 | 
8 | {N4Ac-PEG6′-Ttds(4)}-[Nle]CPPTEFC-OH (linker 2-8 via 3MeBn, also called 3BP-4780) [N4Ac-PEG6-Ttds-Nle-[C(3MeBn)-PPTEFC]-OH] |  |  | 7.1 to 8 pic50 | 
9 | {N4Ac-PPAc-Ttds(4)}-[Nle]CPPTEFC-OH (linker 2-8 via 3MeBn, also called 3BP-4782) [N4Ac-PPAc-Ttds-Nle-[C(3MeBn)-PPTEFC]-OH] |  |  | 7.1 to 8 pic50 | 
10 | {NODAGA′-Ttds(4)}-[Nle]CPPTEFC-NH2 (linker 2-8 via mXylylene, also called 3BP-4743) [NODAGA-Ttds-Nle-[C(3MeBn)-PPTEFC]-NH2] |  |  | 7.1 to 8 pic50 | 
11 | {NODAGA′-Ttds(4)}-[Nle]CPPTEFC-OH (linker 2-8 via mXylylene, also called 3BP-4714) [NODAGA-Ttds-Nle-[C(3MeBn)-PPTEFC]-OH] |  |  | 7.1 to 8 pic50 | 
12 | {N4Ac-PPAc-PEG6′}-[Nle]CPPTEFC-OH (linker 2-8 via 3MeBn, also called 3BP-4781) [N4Ac-PPAc-PEG6-Nle-[C(3MeBn)-PPTEFC]-OH] |  |  | 7.1 to 8 pic50 | 
13 | Hexanoyl-CPPTE[NMeF]C-NH2 (linker 1-7 via mXylylene; SMILES CCCCCC(=O)N[C@H]1CSCc2cccc(c2)CSC[C@@H](C(N)=O)NC(=O)[C@H](Cc2ccccc2)N(C)C(=O)[C@H](CCC(=O)O)NC(=O)[C@H]([C@@H](C)O)NC(=O)[C@@H]2CCCN2C(=O)[C@@H]2CCCN2C1=O, also called 3BP-3358) [Hex-[Cys(3MeBn)-Pro-Pro-Thr-Glu-Nmf-Cys]-NH2] | 6.1 pIC50 and 7 pIC50 | ≤ 6 pIC50 |  | 
